# From the supplement of paper PMC10567573
# B1: GLTSCR2 (parent)
# chain: YNPSFEDHQTLLSAAHEVELQRQK
# B2: VPS39 (parent)
# chain: QQVKCIITEEKVCMVCKKKIGNSA
# Variants of: B1
# Test: protein stability index of a GFP-peptide fusion (GPS, HEK-293T) (PSI 1-6); higher = more stable
# Conditions: c terminus: a fixed tail appended
# 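Note: lentivirally expressed fusions sorted by FACS into six bins by GFP to DsRed ratio, PSI derived from sequencing read proportions per bin multiplied by bin number.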
row,Variant,protein stability index
1,YNPSFQDHQTLLSAAHEVELQRQK,2.58
2,YNPSFVDHQTLLSAAHEVELQRQK,3
3,YNPSFKDHQTLLSAAHEVELQRQK,2.72
4,YNPSFADHQTLLSAAHEVELQRQK,3.1
5,YNPSFEDHQTLLSAAYEVELQRQK,3.34
6,YNPSFEDHQTLLSAAVEVELQRQK,2.97
7,YNPSFEDHQTLLSAACEVELQRQK,3.28
8,YNPSFEDHQTLLSAADEVELQRQK,4.43
9,YNPSFEDHQTLLSAAMEVELQRQK,3.63
10,YNPSFEDHQTLLSAAKEVELQRQK,3.51
11,YNPSFEDHQTLLSAAFEVELQRQK,2.91
12,YNPSFEDHQTLLSAIHEVELQRQK,2.29
13,YNPSFEDHQTLLSAWHEVELQRQK,2.3
14,YNPSFEDHQTLLSANHEVELQRQK,3.85
15,YNPSFEDHQTLLSARHEVELQRQK,3.56
16,YNPSFEDHQTLLSAHHEVELQRQK,3.56
17,YNPSFEDHNTLLSAAHEVELQRQK,4.1
18,YNPSFEDHWTLLSAAHEVELQRQK,2.2
19,YNPSFEDHGTLLSAAHEVELQRQK,4.42
20,YNPSFEDHITLLSAAHEVELQRQK,2.6
21,YNPSFEDHTTLLSAAHEVELQRQK,3.56
22,YNPSFEDHPTLLSAAHEVELQRQK,4.08
23,YNPSFEDHQTLLSAAHEKELQRQK,4.14
24,YNPSFEDHQTLLSAAHEQELQRQK,3.76
25,YNPSFEDHQTLLSAAHEIELQRQK,3.67

row,Variant,protein stability index
1,YNPSFEDHQTLLSAAHEHELQRQK,3.28
2,YNPSFEDHQTLLSAAHECELQRQK,3.65
3,YNPSFEDHQTLLSAAHEVELDRQK,4.16
4,YNPSFEDHQTLLSAAHEVELNRQK,3.71
5,YNPSFEDHQTLLSAAHEVELGRQK,3.26
6,YNPSFEDHQTLLSAAHEVELYRQK,3.18
7,YNPSFEDHQTLLSAAHEVELIRQK,3.26
8,YNPSFEDHQTLLSAAHEVELMRQK,3.06
9,YNPSFEDHQTLLSAAHEVELRRQK,3.95
10,YNPSFEDHQTLLSAAHEVELPRQK,4.07
11,YNPSFEDHQTLLSAAHEVELARQK,3.34
12,YNPSFEDHQTLLSAAHEVELQRQW,2.79
13,YNPSFEDHQTLLSAAHEVELQRQR,3.21
14,YNPSFEDHQTLLSAAHEVELQRQD,4.28
15,YNPSFEDHQTLLSAAHEVELQRQV,3.31
16,YNPSFEDHQTLLSAAHEVELQRQG,3.78
17,YNPSFEDHQTLLSAAHEVELQRQQ,3.81
18,YNPSFEDHQTLLSAAHEVELQRQP,3.33
19,YNPSFEDHQTLLSAAHEVELQRQH,3.23
20,YNPSFEDHQTLLSAAHEVELQRQF,2.66
21,YNPSFEEHQTLLSAAHEVELQRQK,3.46
22,YNPSFEKHQTLLSAAHEVELQRQK,3.62
23,YNPSFECHQTLLSAAHEVELQRQK,4.08
24,YNPSFETHQTLLSAAHEVELQRQK,3.55
25,YNPSFEMHQTLLSAAHEVELQRQK,3.23

row,Variant,protein stability index
1,YNPSFEDHQTLLSAAHEVELQHQK,3.99
2,YNPSFEDHQTLLSAAHEVELQCQK,3.35
3,YNPSFEDHQTLLSAAHEVELQNQK,4.32
4,YNPSFEDHQTLLSAAHEVELQLQK,3.18
5,YNPSFEDHQTLLSAAHEVELQDQK,4.84
6,YNPSFEDHQTLLSAAHEVELQSQK,3.9
7,YNPSFEDHQTLLSAAHEVELQGQK,3.86
8,YNPSFEDHQTLLSAAHEVELQPQK,4.21
9,YNPSFEDHQTLLSAAHEVELQTQK,3.96
10,YNSSFEDHQTLLSAAHEVELQRQK,4.28
11,YNTSFEDHQTLLSAAHEVELQRQK,5.01
12,YNNSFEDHQTLLSAAHEVELQRQK,4.45
13,YNFSFEDHQTLLSAAHEVELQRQK,4.06
14,YNYSFEDHQTLLSAAHEVELQRQK,3.97
15,YNDSFEDHQTLLSAAHEVELQRQK,4.32
16,YNWSFEDHQTLLSAAHEVELQRQK,1.9
17,YNESFEDHQTLLSAAHEVELQRQK,5.06
18,YNPSLEDHQTLLSAAHEVELQRQK,3.43
19,YNPSKEDHQTLLSAAHEVELQRQK,2.48
20,YNPSDEDHQTLLSAAHEVELQRQK,5.24
21,YNPSYEDHQTLLSAAHEVELQRQK,3.68
22,YNPSEEDHQTLLSAAHEVELQRQK,4.9
23,YNPSTEDHQTLLSAAHEVELQRQK,4.28
24,LNPSFEDHQTLLSAAHEVELQRQK,5.03
25,ANPSFEDHQTLLSAAHEVELQRQK,4.93

row,Variant,protein stability index
1,HNPSFEDHQTLLSAAHEVELQRQK,5.16
2,SNPSFEDHQTLLSAAHEVELQRQK,5.38
3,RNPSFEDHQTLLSAAHEVELQRQK,5.37
4,MNPSFEDHQTLLSAAHEVELQRQK,4.96
5,FNPSFEDHQTLLSAAHEVELQRQK,3.65
6,CNPSFEDHQTLLSAAHEVELQRQK,4.78
7,GNPSFEDHQTLLSAAHEVELQRQK,5.36
8,WNPSFEDHQTLLSAAHEVELQRQK,4.16
9,YNPHFEDHQTLLSAAHEVELQRQK,4.26
10,YNPFFEDHQTLLSAAHEVELQRQK,4
11,YNPYFEDHQTLLSAAHEVELQRQK,4.27
12,YNPVFEDHQTLLSAAHEVELQRQK,4.02
13,YNPDFEDHQTLLSAAHEVELQRQK,4.72
14,YNPQFEDHQTLLSAAHEVELQRQK,4.28
15,YNPRFEDHQTLLSAAHEVELQRQK,4.65
16,YNPKFEDHQTLLSAAHEVELQRQK,4.17
17,YNPMFEDHQTLLSAAHEVELQRQK,4.21
18,YNPSFEDHQTLLSAAHEVEYQRQK,3.74
19,YNPSFEDHQTLLSAAHEVEQQRQK,3.87
20,YNPSFEDHQTLLSAAHEVEWQRQK,3.19
21,YNPSFEDHQTLLSAAHEVEVQRQK,3.63
22,YNPSFEDHQTLLSAAHEVETQRQK,4.39
23,YNPSFEDHQTLLSAAHEVEEQRQK,4.54
24,YNPSFEDHQTLLSAAHEVERQRQK,3.89
25,YNPSFEDHQTLLSAAHEVLLQRQK,2.28

row,Variant,protein stability index
1,YNPSFEDHQTLLSAAHEVSLQRQK,3.39
2,YNPSFEDHQTLLSAAHEVMLQRQK,3.01
3,YNPSFEDHQTLLSAAHEVKLQRQK,3.25
4,YNPSFEDHQTLLSAAHEVHLQRQK,3.39
5,YNPSFEDHQTLLSAAHEVPLQRQK,3.86
6,YNPSFEDHQTLLSAAHEVTLQRQK,3.5
7,YNPSFEDHQTLLSPAHEVELQRQK,4.08
8,YNPSFEDHQTLLSMAHEVELQRQK,3.62
9,YNPSFEDHQTLLSEAHEVELQRQK,4.63
10,YNPSFEDHQTLLSNAHEVELQRQK,4.04
11,YNPSFEDHQTLLSCAHEVELQRQK,2.53
12,YNPSFEDHQTLLPAAHEVELQRQK,4.2
13,YNPSFEDHQTLLMAAHEVELQRQK,3.08
14,YNPSFEDHQTLLHAAHEVELQRQK,3.47
15,YNPSFEDHQTLLGAAHEVELQRQK,3.29
16,YNPSFEDHQTLLVAAHEVELQRQK,3.2
17,YNPSFEDHQTLLQAAHEVELQRQK,3.66
18,YNPSFEDHQTLKSAAHEVELQRQK,4.45
19,YNPSFEDHQTLMSAAHEVELQRQK,4.29
20,YNPSFEDHQTLPSAAHEVELQRQK,5.16
21,YNPSFEDHQTLSSAAHEVELQRQK,4.79
22,YNPSFEDHQTLFSAAHEVELQRQK,2.35
23,YWPSFEDHQTLLSAAHEVELQRQK,4.2
24,YQPSFEDHQTLLSAAHEVELQRQK,4.47
25,YAPSFEDHQTLLSAAHEVELQRQK,2.13

row,Variant,protein stability index
1,YGPSFEDHQTLLSAAHEVELQRQK,4.39
2,YPPSFEDHQTLLSAAHEVELQRQK,4.76
3,YLPSFEDHQTLLSAAHEVELQRQK,5.05
4,YYPSFEDHQTLLSAAHEVELQRQK,4.29
5,YRPSFEDHQTLLSAAHEVELQRQK,4.29
6,YCPSFEDHQTLLSAAHEVELQRQK,2.74
7,YMPSFEDHQTLLSAAHEVELQRQK,4.34
8,YFPSFEDHQTLLSAAHEVELQRQK,3.81
9,YEPSFEDHQTLLSAAHEVELQRQK,4.46
10,YNPSFEDHQWLLSAAHEVELQRQK,2.65
11,YNPSFEDHQALLSAAHEVELQRQK,3.39
12,YNPSFEDHQFLLSAAHEVELQRQK,2.61
13,YNPSFEDHQLLLSAAHEVELQRQK,2.71
14,YNPSFEDHQNLLSAAHEVELQRQK,4.01
15,YNPSFEDHQYLLSAAHEVELQRQK,3.03
16,YNPSFEDHQDLLSAAHEVELQRQK,4.32
17,YNPSFEDHQRLLSAAHEVELQRQK,2.59
18,YNPSFEDHQMLLSAAHEVELQRQK,2.87
19,YNPSFEDHQVLLSAAHEVELQRQK,3.53
20,YNPSFEDLQTLLSAAHEVELQRQK,2.22
21,YNPSFEDIQTLLSAAHEVELQRQK,2.53
22,YNPSFEDRQTLLSAAHEVELQRQK,3.66
23,YNPSFEDCQTLLSAAHEVELQRQK,2.67
24,YNPSFEDFQTLLSAAHEVELQRQK,1.99
25,YNPSFEDGQTLLSAAHEVELQRQK,4.05

row,Variant,protein stability index
1,YNPSFEDWQTLLSAAHEVELQRQK,1.88
2,YNPSFEDHQTLLSAAHMVELQRQK,3.29
3,YNPSFEDHQTLLSAAHLVELQRQK,2.96
4,YNPSFEDHQTLLSAAHHVELQRQK,2.78
5,YNPSFEDHQTLLSAAHFVELQRQK,2.45
6,YNPSFEDHQTELSAAHEVELQRQK,5.13
7,YNPSFEDHQTYLSAAHEVELQRQK,3.25
8,YNPSFEDHQTALSAAHEVELQRQK,4.7
9,YNPSFEDHQTPLSAAHEVELQRQK,4.92
10,YNPSFEDHQTMLSAAHEVELQRQK,4.19
11,YNPSFEDHQTKLSAAHEVELQRQK,4.71
12,YNPSFEDHQTILSAAHEVELQRQK,2.96
13,YNPSFEDHQTLLSAAHEVELQRHK,3.33
14,YNPSFEDHQTLLSAAHEVELQRIK,3.23
15,YNPSFEDHQTLLSAAHEVELQRDK,4.23
16,YNPSFEDHQTLLSAAHEVELQRNK,3.45
17,YNPSFEDHQTLLSAAHEVELQRRK,3.5
18,YNPSFEDHQTLLSAAHEVELQRFK,2.56
19,YNPSFEDHQTLLSAAHEVELQRMK,3.4

# Variants of: B2
# Test: as above
# Conditions: c terminus: a fixed tail appended
row,Variant,protein stability index
1,QQVKCIITEEKVCMVCKKKIGNSQ,2.79
2,QQVKCIITEEKVCMVCKKKIGNSM,2.54
3,QQVKCIITEEKVCMVCKKKIGNSK,3.03
4,QQVKCIITEEKVCMVCKKKIGNSF,2.1
5,QQVKCIITEEKVCMVCKKKIGNSS,2.37
6,QQVKCIITEEKVCMVCKKKIGNSV,2.24
7,QQVKCIITEEKVCMVCKKKIGNST,2.93
8,QQVKCIITEEKVCMVCKKKIGNSC,3.03
9,QQVKCIITEEKVCMVCKKKIGNSW,2.07
10,QQVKCIITEEKVCMVCKKKIGNSH,2.23
11,QQVKCIITEEKVCMVCKKKIGNSE,2.48
12,QQVKCIITEEKVCMVCKKKIGNSI,2.49
13,QQVKCIITEEKVCMVCKKKIGNSG,2.29
14,QQVKCIITEEKVCMVCKKKIGNSP,3.03
15,QQVKCIITEEKVCMVCKKKIGNSY,2.57
16,QQVKCIITEEKVCMVCKKKIGNSD,3.35
17,QQVKCIITEEKVCMVCKKKIGNSN,2.84
18,QQVKCIITEEKVCMVCKKKIGNSL,1.74
19,QQVKCIITEEKVCMVCKKKIGNYA,2.41
